According to PMC11480844:

B1: H2-Kb / B13 (parent)
chain 1: AQKVTQTQTSISVMEKTTVTMDCVYETQDSSYFLFWYKQTASGEIVFLIRQDSYKKENATVGHYSLNFQKPKSSIGLIITATQIEDSAVYFCAMREGTGGYKVVFGSGTRLLVSP
chain 2: EAAVTQSPRNKVTVTGGNVTLSCRQTNSHNYMYWYRQDTGHGLRLIHYSYGAGNLQIGDVPDGYKATRTTQEDFFLLLELASPSQTSLYFCASSDGTGHEQYFGPGTRLTVL
chain 3: not shown
chain 4: IQKTPQIQVYSRHPPENGKPNILNCYVTQFHPPHIEIQMLKNGKKIPKVEMSDMSFSKDWSFYILAHTEFTPTETDTYACRVKHDSMAEPKTVYWDRDM
chain 5: SIINFEKL
B2: H2-Kb / E8 (parent)
chain 1: GDSVTQTEGLVTVTEGLPVKLNCTYQTTYLTIAFFWYVQYLNEAPQVLLKSSTDNKRTEHQGFHATLHKSSSSFHLQKSSAQLSDSALYYCALNTNTGKLTFGDGTVLTVKP
chain 2: EAAVTQSPRNKVAVTGGKVTLSCNQTNNHNNMYWYRQDTGHGLRLIHYSYGAGSTEKGDIPDGYKASRPSQENFSLILELATPSQTSVYFCASGDWGAGTGQLYFGEGSKLTVL
chain 3: not shown
chain 4: B1 chain 4
chain 5: SIINFEKL

Variants of: B1
Test: % of reporter cells activated (NFAT-GFP), raw
Conditions: with B13; scale: % of reporter cells activated
Further: test concentration or dose not given here.

Ratio to parent of substitutions, site by site:
chain 5 E6: R 0.024, S 0.0411, T 0.0399, V 0.038, W 0.0431, Y 0.0507
chain 5 F5: A 0.131, C 0.132, D 0.179, E 0.0684, G 0.0418, H 0.366, I 0.0887, K 0.15, L 0.117, M 0.316, N 0.0634, P 0.144, Q 0.0482, R 0.0811, S 0.0431, T 0.195, V 0.331, W 0.0204, Y 0.712
chain 5 I2: A 1.04, C 1.49, D 0.523, E 0.75, F 1.01, G 0.284, H 1, K 1.84, L 1.48, M 0.411, N 0.347, P 0.285, Q 0.243, R 1.49, S 0.848, T 1.09, V 1.98, W 2.33, Y 2.07
chain 5 I3: A 4.66, C 5.34, D 0.0646, E 4.51, F 0.122, G 1.07, H 1.64, K 0.422, L 2.17, M 5.23, N 1.58, P 5.54, Q 4.85, R 1.96, S 1.98, T 1.56, V 2.29, W 0.293, Y 0.117
chain 5 K7: A 0.722, C 1.38, D 0.108, E 0.113, F 1.21, G 0.471, H 0.431, I 1.32, L 3.14, M 4.28, N 1.14, P 0.0545, Q 0.887, R 0.987, S 1.02, T 1.03, V 2.07, W 1.27, Y 0.195
chain 5 L8: A 0.227, C 3.32, D 2.32, E 2.13, F 0.189, G 1.21, H 0.954, I 0.992, K 0.45, M 0.471, N 3, P 2.29, Q 0.247, R 1.98, S 2.06, T 0.331, V 0.393, W 0.423, Y 0.812
chain 5 N4: A 0.052, C 0.0444, D 0.0238, E 0.156, F 0.393, G 0.101, H 0.038, I 0.179, K 0.0279, L 0.0811, M 0.0596, P 0.0596, Q 0.0444, R 0.104, S 0.0507, T 0.0378, V 0.0342, W 0.025, Y 0.0196
chain 5 S1: A 0.835, C 0.0621, D 0.113, E 0.113, F 0.0232, G 0.236, H 0.0963, I 0.381, K 0.64, L 0.112, M 1.15, N 0.0976, P 0.139, Q 0.392, R 6.17, T 0.544, V 0.857, W 1.35, Y 0.11

Variants of: B2
Test: % of reporter cells activated (NFAT-GFP), raw
Conditions: with E8; scale: % of reporter cells activated

Ratio to parent, by site and new letter:
chain 5 E6: A 0.159, C 0.0282, D 0.546, F 0.018, G 0.193, H 0.0243, I 0.0166, K 0.03, L 0.0214, M 0.0317, N 0.03, P 0.169, Q 0.115, R 0.0462, S 0.0471, T 0.0257, V 0, W 0.0496, Y 0.00591
chain 5 F5: A 1.63, C 1.41, D 0.0471, E 0.539, G 1.93, H 1.61, I 0.735, K 0.557, L 0.68
